2 molecules from paper PMC9363427, “The SWI/SNF chromatin remodeling factor DPF3 regulates metastasis of ccRCC by modulating TGF-β signaling” (Nature Communications, 2022) can be followed below.

B1: Recombinant full-length DPF3a, GST tag removed (natural protein, human, UniProt Q92784-2 1-357, looked up)
chain: MATVIHNPLKALGDQFYKEAIEHCRSYNSRLCAERSVRLPFLDSQTGVAQNNCYIWMEKRHRGPGLAPGQLYTYPARCWRKKRRLHPPEDPKLRLLEIKPEVELPLKKDGFTSESTTLEALLRGEGVEKKVDAREEESIQEIQRVLENDENVEEGNEEEDLEEDIPKRKNRTRGRARGSAGGRRRHDAASQEDHDKPYVCDICGKRYKNRPGLSYHYAHTHLASEEGDEAQDQETRSPPNHRNENHRPQKGPDGTVIPNNYCDFCLGGSNMNKKSGRPEELVSCADCGRSAHLGGEGRKEKEAAAAARTTEDLFGSTSESDTSTFHGFDEDDLEEPRSCRGRRSGRGSPTADKKGSC
notes: Zinc finger protein DPF3, isoform DPF3a, cDNA subcloned into pGEX-6P-1; Expressed with 0.1 mM ZnSO4; also called DPF3a-FL; full-length DPF3a proteins; source: E. coli BL21 (DE3)-RIL, purified (Glutathione Sepharose 4B, 3C protease, Superdex 200)

For assay [1], the target named is T1, GST-tagged full-length SNIP1 (recombinant) (human, UniProt Q8TAD8 1-396).
T1 construct: also called SNIP1-FL; source: E. coli BL21 (DE3)-RIL, purified (Glutathione Sepharose 4B, Superdex 200)
T1 sequence (looked up): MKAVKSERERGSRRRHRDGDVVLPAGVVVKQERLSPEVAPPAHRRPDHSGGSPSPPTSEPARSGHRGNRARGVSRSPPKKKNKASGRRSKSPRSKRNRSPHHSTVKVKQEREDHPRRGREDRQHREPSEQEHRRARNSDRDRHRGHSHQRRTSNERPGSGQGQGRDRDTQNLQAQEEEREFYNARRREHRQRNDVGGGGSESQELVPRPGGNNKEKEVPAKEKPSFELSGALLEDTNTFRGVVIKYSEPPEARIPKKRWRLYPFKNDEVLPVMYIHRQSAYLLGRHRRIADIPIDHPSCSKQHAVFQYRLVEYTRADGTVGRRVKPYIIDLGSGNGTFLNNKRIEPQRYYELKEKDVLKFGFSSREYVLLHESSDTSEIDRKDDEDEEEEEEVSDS
In words: pull-down; 1.5 nmol GST-tagged DPF3a or SNIP1 construct on Glutathione Sepharose 4B beads, 2 nmol SNIP1 1-240 or full-length DPF3a added, 4 °C 2 h; 20 mM Tris pH 7.5, 100 mM NaCl, 5 mM β-mercaptomethanol; washes with 0.5% Triton X-100; SDS-PAGE. As to conditions: both partners purified.

Assay [2] deals with B1. Described as above. To be noted: both partners purified.

Take B1: in assay [1], the binding result is given as “binds”.

B2: GST-tagged SNIP1 N-terminus (1-240) (recombinant) (domain or fragment, human, UniProt Q8TAD8 1-240, looked up)
chain: MKAVKSERERGSRRRHRDGDVVLPAGVVVKQERLSPEVAPPAHRRPDHSGGSPSPPTSEPARSGHRGNRARGVSRSPPKKKNKASGRRSKSPRSKRNRSPHHSTVKVKQEREDHPRRGREDRQHREPSEQEHRRARNSDRDRHRGHSHQRRTSNERPGSGQGQGRDRDTQNLQAQEEEREFYNARRREHRQRNDVGGGGSESQELVPRPGGNNKEKEVPAKEKPSFELSGALLEDTNTFR
notes: also called SNIP1-IDR; source: E. coli BL21 (DE3)-RIL, purified (Glutathione Sepharose 4B, Superdex 200)
Turning to B2, the binding result in assay [2] is “binds”.
